# According to paper PMC9482650, “Quantitative fragmentomics allow affinity mapping of interactomes” (Nature Communications, 2022):
# T1: TJP3_3, O95049
# T1 sequence (O95049 375-456, limits assumed, looked up): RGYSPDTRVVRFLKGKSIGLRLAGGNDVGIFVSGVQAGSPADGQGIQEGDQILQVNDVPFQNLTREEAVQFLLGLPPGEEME
# T2: APBA2_1, Q99767
# T2 sequence (Q99767 563-664, limits assumed, looked up): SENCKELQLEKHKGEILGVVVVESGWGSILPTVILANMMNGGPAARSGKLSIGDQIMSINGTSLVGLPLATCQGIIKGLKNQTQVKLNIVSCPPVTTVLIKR
# T3: NHERF3_3, Q5T2W1
# T3 sequence (Q5T2W1 238-333, limits assumed, looked up): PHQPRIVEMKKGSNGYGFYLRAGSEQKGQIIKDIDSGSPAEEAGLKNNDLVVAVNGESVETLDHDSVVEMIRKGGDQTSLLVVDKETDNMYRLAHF
# T4: PARD3B_1, Q8TEW8
# T4 sequence (Q8TEW8 196-299, limits assumed, looked up): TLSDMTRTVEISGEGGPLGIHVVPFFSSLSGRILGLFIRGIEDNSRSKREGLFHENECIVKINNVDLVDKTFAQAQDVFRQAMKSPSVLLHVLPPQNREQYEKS
# T5: PDZD7_3, Q9H5P4
# T5 sequence (Q9H5P4 857-944, limits assumed, looked up): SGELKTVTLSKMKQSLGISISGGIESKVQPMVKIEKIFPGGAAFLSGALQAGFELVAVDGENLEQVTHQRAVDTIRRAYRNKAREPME
# T6: DVL3, Q92997
# T6 sequence (Q92997 244-331, limits assumed, looked up): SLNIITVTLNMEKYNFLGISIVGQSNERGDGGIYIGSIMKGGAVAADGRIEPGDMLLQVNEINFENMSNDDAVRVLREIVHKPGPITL
# T7: SIPA1L2, Q9P2F8
# T7 sequence (Q9P2F8 945-1036, limits assumed, looked up): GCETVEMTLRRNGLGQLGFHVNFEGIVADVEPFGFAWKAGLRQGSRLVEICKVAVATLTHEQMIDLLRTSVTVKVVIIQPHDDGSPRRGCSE
# T8: HTRA3, P83110
# T8 sequence (P83110 354-453, limits assumed, looked up): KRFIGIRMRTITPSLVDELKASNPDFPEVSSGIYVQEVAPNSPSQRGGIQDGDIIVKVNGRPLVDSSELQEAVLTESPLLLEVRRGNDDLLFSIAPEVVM
# T9: APBA3_1, O96018
# T9 sequence (O96018 389-490, limits assumed, looked up): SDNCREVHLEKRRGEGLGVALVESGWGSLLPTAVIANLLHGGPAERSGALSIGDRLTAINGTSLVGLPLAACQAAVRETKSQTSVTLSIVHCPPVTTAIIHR
# T10: SNTG1, Q9NSN8
# T10 sequence (Q9NSN8 52-150, limits assumed, looked up): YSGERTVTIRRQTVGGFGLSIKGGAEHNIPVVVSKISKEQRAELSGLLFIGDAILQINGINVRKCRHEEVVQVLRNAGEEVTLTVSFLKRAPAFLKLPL
# T11: DFNB31_2, Q9P202
# T11 sequence (Q9P202 274-371, limits assumed, looked up): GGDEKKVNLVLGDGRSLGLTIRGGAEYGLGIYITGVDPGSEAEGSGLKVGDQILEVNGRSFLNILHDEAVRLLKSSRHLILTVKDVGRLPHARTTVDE
# T12: SNTA1, Q13424
# T12 sequence (Q13424 82-180, limits assumed, looked up): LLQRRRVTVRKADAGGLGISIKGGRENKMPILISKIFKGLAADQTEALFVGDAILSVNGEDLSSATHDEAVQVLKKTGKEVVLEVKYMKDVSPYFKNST
# Target: SCRIB_1, Q14160
# Sequence (Q14160 718-814): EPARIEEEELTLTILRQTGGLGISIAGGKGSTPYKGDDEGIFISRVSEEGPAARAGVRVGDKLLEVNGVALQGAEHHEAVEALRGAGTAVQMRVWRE
# Test: holdup assay
# Set-up: key: below the threshold = too weak to quantify, mostly under pKd 3.1 to 4
# Details: plain residues with an end cap or a label only (N-terminal biotin on a linker: ado-ado)
row,Binder,pKd
1,"PAPSSGKDYV [CLDN1, O95832]",below the threshold
2,"QGLAERISVL [PRKD2, Q9BZL6]",3.77

# Target: T1, TJP3_3, O95049
# Test: holdup assay
# Set-up: key: below the threshold = too weak to quantify, mostly under pKd 3.1 to 4
# Details: plain residues with an end cap or a label only (N-terminal biotin on a linker: ado-ado)
row,Binder,pKd
1,"PAPSSGKDYV [CLDN1, O95832]",3.55
2,"QGLAERISVL [PRKD2, Q9BZL6]",below the threshold

# Target: SCRIB_3, Q14160
# Sequence (Q14160 999-1103): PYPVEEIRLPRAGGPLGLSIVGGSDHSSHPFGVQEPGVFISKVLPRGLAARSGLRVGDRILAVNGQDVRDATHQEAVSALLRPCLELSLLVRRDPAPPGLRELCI
# Test: holdup assay
# Set-up: key: below the threshold = too weak to quantify, mostly under pKd 3.1 to 4
# Details: plain residues with an end cap or a label only (N-terminal biotin on a linker: ado-ado)
row,Binder,pKd
1,"PAPSSGKDYV [CLDN1, O95832]",below the threshold
2,"QGLAERISVL [PRKD2, Q9BZL6]",4.19

# Target: NHERF4_2, Q86UT5
# Sequence (Q86UT5 220-308): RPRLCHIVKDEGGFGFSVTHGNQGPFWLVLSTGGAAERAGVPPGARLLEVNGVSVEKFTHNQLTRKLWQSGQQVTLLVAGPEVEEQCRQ
# Test: holdup assay
# Set-up: key: below the threshold = too weak to quantify, mostly under pKd 3.1 to 4
# Details: plain residues with an end cap or a label only (N-terminal biotin on a linker: ado-ado)
row,Binder,pKd
1,"PAPSSGKDYV [CLDN1, O95832]",below the threshold
2,"QGLAERISVL [PRKD2, Q9BZL6]",below the threshold

# Target: T2, APBA2_1, Q99767
# Test: holdup assay
# Set-up: key: below the threshold = too weak to quantify, mostly under pKd 3.1 to 4
# Details: plain residues with an end cap or a label only (N-terminal biotin on a linker: ado-ado)
row,Binder,pKd
1,"PAPSSGKDYV [CLDN1, O95832]",below the threshold
2,"QGLAERISVL [PRKD2, Q9BZL6]",below the threshold

# Target: TJP1_2, Q07157
# Sequence (Q07157 181-274): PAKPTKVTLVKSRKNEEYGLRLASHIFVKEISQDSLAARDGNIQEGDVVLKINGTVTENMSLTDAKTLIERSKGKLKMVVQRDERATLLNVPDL
# Test: holdup assay
# Set-up: key: below the threshold = too weak to quantify, mostly under pKd 3.1 to 4
# Details: plain residues with an end cap or a label only (N-terminal biotin on a linker: ado-ado)
row,Binder,pKd
1,"PAPSSGKDYV [CLDN1, O95832]",below the threshold
2,"QGLAERISVL [PRKD2, Q9BZL6]",below the threshold

# Target: T3, NHERF3_3, Q5T2W1
# Test: holdup assay
# Set-up: key: below the threshold = too weak to quantify, mostly under pKd 3.1 to 4
# Details: plain residues with an end cap or a label only (N-terminal biotin on a linker: ado-ado)
row,Binder,pKd
1,"PAPSSGKDYV [CLDN1, O95832]",below the threshold
2,"QGLAERISVL [PRKD2, Q9BZL6]",below the threshold

# Target: DLG2_2, Q15700
# Sequence (Q15700 189-283): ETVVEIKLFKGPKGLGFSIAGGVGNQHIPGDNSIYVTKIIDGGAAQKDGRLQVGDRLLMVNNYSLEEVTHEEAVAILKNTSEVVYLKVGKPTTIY
# Test: holdup assay
# Set-up: key: below the threshold = too weak to quantify, mostly under pKd 3.1 to 4
# Details: plain residues with an end cap or a label only (N-terminal biotin on a linker: ado-ado)
row,Binder,pKd
1,"PAPSSGKDYV [CLDN1, O95832]",below the threshold
2,"QGLAERISVL [PRKD2, Q9BZL6]",below the threshold

# Target: GRIP2_3, Q9C0E4
# Sequence (Q9C0E4 238-339): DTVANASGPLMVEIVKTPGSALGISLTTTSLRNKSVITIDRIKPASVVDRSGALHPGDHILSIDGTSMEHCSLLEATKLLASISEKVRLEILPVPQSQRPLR
# Test: holdup assay
# Set-up: key: below the threshold = too weak to quantify, mostly under pKd 3.1 to 4
# Details: plain residues with an end cap or a label only (N-terminal biotin on a linker: ado-ado)
row,Binder,pKd
1,"PAPSSGKDYV [CLDN1, O95832]",below the threshold
2,"QGLAERISVL [PRKD2, Q9BZL6]",below the threshold

# Target: LIMK2, P53671
# Sequence (P53671 143-248): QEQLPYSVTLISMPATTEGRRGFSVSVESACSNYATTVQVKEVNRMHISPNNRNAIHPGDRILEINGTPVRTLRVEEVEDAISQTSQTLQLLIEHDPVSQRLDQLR
# Test: holdup assay
# Set-up: key: below the threshold = too weak to quantify, mostly under pKd 3.1 to 4
# Details: plain residues with an end cap or a label only (N-terminal biotin on a linker: ado-ado)
row,Binder,pKd
1,"PAPSSGKDYV [CLDN1, O95832]",below the threshold
2,"QGLAERISVL [PRKD2, Q9BZL6]",below the threshold

# Target: PARD3_3, Q8TEW0
# Sequence (Q8TEW0 582-685): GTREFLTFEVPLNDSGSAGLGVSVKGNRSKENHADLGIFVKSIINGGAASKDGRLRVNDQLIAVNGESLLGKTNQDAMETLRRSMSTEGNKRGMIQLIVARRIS
# Test: holdup assay
# Set-up: key: below the threshold = too weak to quantify, mostly under pKd 3.1 to 4
# Details: plain residues with an end cap or a label only (N-terminal biotin on a linker: ado-ado)
row,Binder,pKd
1,"PAPSSGKDYV [CLDN1, O95832]",below the threshold
2,"QGLAERISVL [PRKD2, Q9BZL6]",3.68

# Target: MAGI1_2, Q96QZ7
# Sequence (Q96QZ7 456-580): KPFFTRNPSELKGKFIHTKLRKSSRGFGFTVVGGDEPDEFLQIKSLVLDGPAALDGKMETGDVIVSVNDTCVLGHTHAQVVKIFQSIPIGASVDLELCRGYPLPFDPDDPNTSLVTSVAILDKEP
# Test: holdup assay
# Set-up: key: below the threshold = too weak to quantify, mostly under pKd 3.1 to 4
# Details: plain residues with an end cap or a label only (N-terminal biotin on a linker: ado-ado)
row,Binder,pKd
1,"PAPSSGKDYV [CLDN1, O95832]",below the threshold
2,"QGLAERISVL [PRKD2, Q9BZL6]",below the threshold

# Target: T4, PARD3B_1, Q8TEW8
# Test: holdup assay
# Set-up: key: below the threshold = too weak to quantify, mostly under pKd 3.1 to 4
# Details: plain residues with an end cap or a label only (N-terminal biotin on a linker: ado-ado)
row,Binder,pKd
1,"PAPSSGKDYV [CLDN1, O95832]",below the threshold
2,"QGLAERISVL [PRKD2, Q9BZL6]",4.47

# Target: T5, PDZD7_3, Q9H5P4
# Test: holdup assay
# Set-up: key: below the threshold = too weak to quantify, mostly under pKd 3.1 to 4
# Details: plain residues with an end cap or a label only (N-terminal biotin on a linker: ado-ado)
row,Binder,pKd
1,"PAPSSGKDYV [CLDN1, O95832]",below the threshold
2,"QGLAERISVL [PRKD2, Q9BZL6]",5.21

# Target: T6, DVL3, Q92997
# Test: holdup assay
# Set-up: key: below the threshold = too weak to quantify, mostly under pKd 3.1 to 4
# Details: plain residues with an end cap or a label only (N-terminal biotin on a linker: ado-ado)
row,Binder,pKd
1,"PAPSSGKDYV [CLDN1, O95832]",below the threshold
2,"QGLAERISVL [PRKD2, Q9BZL6]",below the threshold

# Target: T7, SIPA1L2, Q9P2F8
# Test: holdup assay
# Set-up: key: below the threshold = too weak to quantify, mostly under pKd 3.1 to 4
# Details: plain residues with an end cap or a label only (N-terminal biotin on a linker: ado-ado)
row,Binder,pKd
1,"PAPSSGKDYV [CLDN1, O95832]",below the threshold
2,"QGLAERISVL [PRKD2, Q9BZL6]",below the threshold

# Target: T8, HTRA3, P83110
# Test: holdup assay
# Set-up: key: below the threshold = too weak to quantify, mostly under pKd 3.1 to 4
# Details: plain residues with an end cap or a label only (N-terminal biotin on a linker: ado-ado)
row,Binder,pKd
1,"PAPSSGKDYV [CLDN1, O95832]",3.95
2,"QGLAERISVL [PRKD2, Q9BZL6]",below the threshold

# Target: T9, APBA3_1, O96018
# Test: holdup assay
# Set-up: key: below the threshold = too weak to quantify, mostly under pKd 3.1 to 4
# Details: plain residues with an end cap or a label only (N-terminal biotin on a linker: ado-ado)
row,Binder,pKd
1,"PAPSSGKDYV [CLDN1, O95832]",below the threshold
2,"QGLAERISVL [PRKD2, Q9BZL6]",below the threshold

# Target: T10, SNTG1, Q9NSN8
# Test: holdup assay
# Set-up: key: below the threshold = too weak to quantify, mostly under pKd 3.1 to 4
# Details: plain residues with an end cap or a label only (N-terminal biotin on a linker: ado-ado)
row,Binder,pKd
1,"PAPSSGKDYV [CLDN1, O95832]",below the threshold
2,"QGLAERISVL [PRKD2, Q9BZL6]",3.54

# Target: T11, DFNB31_2, Q9P202
# Test: holdup assay
# Set-up: key: below the threshold = too weak to quantify, mostly under pKd 3.1 to 4
# Details: plain residues with an end cap or a label only (N-terminal biotin on a linker: ado-ado)
row,Binder,pKd
1,"PAPSSGKDYV [CLDN1, O95832]",below the threshold
2,"QGLAERISVL [PRKD2, Q9BZL6]",below the threshold

# Target: ARHGEF12, Q9NZN5-2
# Sequence (Q9NZN5 other isoform, or with tags, fused parts or gaps): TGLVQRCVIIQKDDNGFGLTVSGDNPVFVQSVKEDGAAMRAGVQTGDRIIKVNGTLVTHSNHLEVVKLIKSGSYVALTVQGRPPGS
# Test: holdup assay
# Set-up: key: below the threshold = too weak to quantify, mostly under pKd 3.1 to 4
# Details: plain residues with an end cap or a label only (N-terminal biotin on a linker: ado-ado)
row,Binder,pKd
1,"PAPSSGKDYV [CLDN1, O95832]",below the threshold
2,"QGLAERISVL [PRKD2, Q9BZL6]",5.06

# Target: GORASP1, Q9BQQ3
# Sequence (Q9BQQ3 1-208): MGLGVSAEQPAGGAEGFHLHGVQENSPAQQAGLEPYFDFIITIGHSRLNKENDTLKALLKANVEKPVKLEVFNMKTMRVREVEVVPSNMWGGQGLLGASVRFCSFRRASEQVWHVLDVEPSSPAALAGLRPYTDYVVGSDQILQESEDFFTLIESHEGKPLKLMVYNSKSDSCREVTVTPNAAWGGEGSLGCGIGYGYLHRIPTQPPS
# Test: holdup assay
# Set-up: key: below the threshold = too weak to quantify, mostly under pKd 3.1 to 4
# Details: plain residues with an end cap or a label only (N-terminal biotin on a linker: ado-ado)
row,Binder,pKd
1,"PAPSSGKDYV [CLDN1, O95832]",below the threshold
2,"QGLAERISVL [PRKD2, Q9BZL6]",4.08

# Target: CASK, O14936
# Sequence (O14936 487-570): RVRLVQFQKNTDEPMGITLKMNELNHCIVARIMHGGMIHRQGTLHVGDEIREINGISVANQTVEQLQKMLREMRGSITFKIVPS
# Test: holdup assay
# Set-up: key: below the threshold = too weak to quantify, mostly under pKd 3.1 to 4
# Details: plain residues with an end cap or a label only (N-terminal biotin on a linker: ado-ado)
row,Binder,pKd
1,"PAPSSGKDYV [CLDN1, O95832]",below the threshold
2,"QGLAERISVL [PRKD2, Q9BZL6]",below the threshold

# Target: T12, SNTA1, Q13424
# Test: holdup assay
# Set-up: key: below the threshold = too weak to quantify, mostly under pKd 3.1 to 4
# Details: plain residues with an end cap or a label only (N-terminal biotin on a linker: ado-ado)
row,Binder,pKd
1,"PAPSSGKDYV [CLDN1, O95832]",below the threshold
2,"QGLAERISVL [PRKD2, Q9BZL6]",4.71

# Target: GRIP2_7, Q9C0E4
# Sequence (Q9C0E4 934-1023): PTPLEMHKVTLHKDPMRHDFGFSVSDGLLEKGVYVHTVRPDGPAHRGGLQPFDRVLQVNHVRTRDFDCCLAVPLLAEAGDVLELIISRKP
# Test: holdup assay
# Set-up: key: below the threshold = too weak to quantify, mostly under pKd 3.1 to 4
# Details: plain residues with an end cap or a label only (N-terminal biotin on a linker: ado-ado)
row,Binder,pKd
1,"PAPSSGKDYV [CLDN1, O95832]",3.63
2,"QGLAERISVL [PRKD2, Q9BZL6]",below the threshold

# Target: TJP2_1, Q9UDY2
# Sequence (Q9UDY2 24-128): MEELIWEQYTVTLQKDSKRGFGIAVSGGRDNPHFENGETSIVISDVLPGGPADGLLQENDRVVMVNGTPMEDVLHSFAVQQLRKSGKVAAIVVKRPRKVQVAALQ
# Test: holdup assay
# Set-up: key: below the threshold = too weak to quantify, mostly under pKd 3.1 to 4
# Details: plain residues with an end cap or a label only (N-terminal biotin on a linker: ado-ado)
row,Binder,pKd
1,"PAPSSGKDYV [CLDN1, O95832]",3.71
2,"QGLAERISVL [PRKD2, Q9BZL6]",below the threshold
